Measured values: article doi:10.1101/794511

What was measured:
Experiment in all cases: EMSA
[1] = molecular target: Gsx2 N253A homeodomain fragment (Mus musculus, UniProt P31316 167-305, N253A)
[2] = molecular target: Gsx2 homeodomain fragment (Mus musculus, UniProt P31316 167-305)
E47 bHLH fragment = molecular target: T1, E47 bHLH fragment (Mus musculus, UniProt P15806-2 430-648)
T1 sequence: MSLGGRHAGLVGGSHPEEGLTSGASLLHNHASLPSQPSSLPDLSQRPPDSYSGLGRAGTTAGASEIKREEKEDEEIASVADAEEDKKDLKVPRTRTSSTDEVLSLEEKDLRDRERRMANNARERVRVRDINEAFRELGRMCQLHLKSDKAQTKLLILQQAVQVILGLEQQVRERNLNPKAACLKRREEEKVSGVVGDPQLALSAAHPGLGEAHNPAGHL

Gsx2 homeodomain fragment, sequence (P31316 167-305): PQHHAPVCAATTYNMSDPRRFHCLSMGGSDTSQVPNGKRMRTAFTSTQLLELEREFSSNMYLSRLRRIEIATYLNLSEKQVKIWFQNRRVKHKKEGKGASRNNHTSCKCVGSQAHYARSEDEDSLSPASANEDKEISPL
Gsx2 N253A homeodomain fragment, sequence (P31316 167-305 N253A): as the sequence (P31316 167-305) above, with N87A counted along it

B1: Gsx2_site (dsDNA)
DNA 1: CAGAGTGTAATTAACATTCAGTAGTGCGGGCGTGGCT
DNA 2: AGCCACGCCCGCACTACTGAATGTTAATTACACTCTG
B1: no binding [1]; binds [2].

B2: Ac-Luc E2 (dsDNA)
DNA 1: CACCAACAGCTGCGTTTTTAGTGCGGGCGTGGCT
DNA 2: AGCCACGCCCGCACTAAAAACGCAGCTGTTGGTG
B2: binds (E47 bHLH fragment).
